How the values were obtained:
human B2M locus = assay: Editing (indel rate by NGS) at the B2M locus by catalytically-dead CasX variants (Example 8); assay type: cell-based; conditions: B2M-targeting spacer 7.37, HEK293T, six days after transfection
[1] = test system: endogenous B2M (beta-2-microglobulin) gene; assay: B2M protein expression by HLA antibody staining and flow cytometry (Example 1); assay type: cell-based, human; conditions: HEK293T, seven days post-transfection
Description: dXR variant plasmids encoding constructs having the configuration of U6-gRNA+Ef1α-NLS-GGS-dCasX491-GGS-KRAB variant-NLS (dCasX491 refers to catalytically-dead CasX 491), were transiently transfected into HEK293T cells in an arrayed 96-well format. These constructs also contained a 2× FLAG sequence, as well as sequences encoding either a gRNA scaffold 174 (SEQ ID NO: 2238) having a spacer (spacer 7.37) targeting the endogenous B2M (beta-2-microglobulin) gene or a non-targeting control (spacer 0.0), which were all cloned upstream of a P2A-puromycin element on the plasmid. Four different effector domains were tested in addition to the “naked” dCasX491 (KRAB variant domains listed in Table 9; spacer sequences listed in Table 10; sequences of additional elements listed in Table 11). The corresponding protein sequences of the dXR molecule are listed in Table 13, and the generic configuration of the dXR molecule is illustrated in FIG. 38. Positive and negative controls based on a catalytically-dead Cas9 nuclease (with or without a ZNF10 repressor) with a B2M-targeting gRNA (spacer 7.14) or a non-targeting gRNA control (spacer 0.0) were included, along with a catalytically-active CasX 491 and gRNA with the same 7.37 and 0.0 spacers. Two days after transfection, total RNA was harvested, and reverse transcribed to generate a cDNA library. Changes in gene expression were calculated by performing qPCR on the targeted gene and a housekeeping gene as reference. Relative gene expression represents the amount of target-specific RNA relative to a reference gene normalized to the non-targeting guide condition for two biological replicates. In addition to the wells used for RNA measurements, a separate set of wells was harvested seven days post-transfection and analyzed for B2M protein expression. Expression of B2M protein was determined by using an antibody that detects the B2M-dependent HLA protein complex on the cell surface.

Molecule | percent editing at the B2M locus measured as indel rate (human B2M locus) | % cells expressing B2M protein ([1]; spacer 0.0 (non-targeting)) [%] | % cells expressing B2M protein ([1]; spacer 7.37 (B2M-targeting, CasX)) [%] | % of cells negative for the B2M protein ([1]; B2M-targeting gRNA) [%]
dCasX668: dCasX variant, SEQ ID NO: 59355 (protein) QEIKRINKIRRRLVKDSNTKKAGKTRGPMKTLLVRVMTPDLRERLENLRKKPENIPQPISNTSRANLNKLLTDYTEMKKAILHVYWEEFQKDPVGLMSRVAQPASKKIDQNKLKPEMDEKGNLTTAGFACSQCGQPLFVYKLEQVSEKGKAYTNYFGRCNVAEHEKLILLAQLKPEKDSDEAVTYSLGKFGQRALDFYSIHVTKESTHPVKPLAQIAGNRYASSPVGKALSDACMGTIASFLSKYQDIIIEHQKVVKGNQKRLESLRELAGKENLEYPSVTLPPQPHTKEGVDAYNEVIARVRMWVNLNLWQKLKLSRDDAKPLLRLKGFPSFPLVERQANEVDWWDMVCNVKKLINEKKEDGKVFWQNLAGYKRQEALRPYLSSEEDRKKGKKFARYQLGDLLLHLEKKHGEDWGKVYDEAWERIDKKVEGLSKHIKLEEERRSEDAQSKAALTDWLRAKASFVIEGLKEADKDEFCRCELKLQKWYGDLRGKPFAIEAENSILDISGFSKQYNCAFIWQKDGVKKLNLYLIINYFKGGKLRFKKIKPEAFEANRFYTVINKKSGEIVPMEVNFNFDDPNLIILPLAFGKRQGREFIWNDLLSLETGSLKLANGRVIEKTLYNRRTRQDEPALFVALTFERREVLDSSNIKPMNLIGVARGENIPAVIALTDPEGCPLSRFKDSLGNPTHILRIGESYKEKQRTIQAKKEVEQRRAGGYSRKYASKAKNLADDMVRNTARDLLYYAVTQDAMLIFANLSRGFGRQGKRTFMAERQYTRMEDWLTAKLAYEGLPSKTYLSKTLAQYTSKTCSNCGFTITSADYDRVLEKLKKTATGWMTTINGKELKVEGQITYYNRYKRQNVVKDLSVELDRLSEESVNNDISSWTKGRSGEALSLLKKRFSHRPVQEKFVCLNCGFETHAAEQAALNIARSWLFLRSQEYKKYQTNKTTGNTDKRAFVETWQSFYRKKLKEVWKPAV | did not exhibit editing |  |  | 
dCasX676: dCasX variant, SEQ ID NO: 59357 (protein) QEIKRINKIRRRLVKDSNTKKAGKTRGPMKTLLVRVMTPDLRERLENLRKKPENIPQPISNTSRANLNKLLTDYTEMKKAILHVYWEEFQKDPVGLMSRVAQPASKKIDQNKLKPEMDEKGNLTTAGFACSQCGQPLFVYKLEQVSEKGKAYTNYFGRCNVAEHEKLIKLAQLKPEKDSDEAVTYSLGKFGQRALDFYSIHVTKESTHPVKPLAQIAGNRYASSPVGKALSDACMGTIASFLSKYQDIIIEHQKVVKGNQKRLESLRELAGKENLEYPSVTLPPQPHTKEGVDAYNEVIARVRMWVNLNLWQKLKLSRDDAKPLLRLKGFPSFPLVERQANEVDWWDMVCNVKKLINEKKEDGKVFWQNLAGYKRQEALRPYLSSEEDRKKGKKFARYQLGDLLLHLEKKHGEDWGKVYDEAWERIDKKVEGLSKHIKLEEERRSEDAQSKAALTDWLRAKASFVIEGLKEADKDEFCRCELKLQKWYGDLRGKPFAIEAENSILDISGFSKQYNCAFIWQKDGVKKLNLYLIINYFKGGKLRFKKIKPEAFEANRFYTVINKKSGEIVPMEVNFNFDDPNLIILPLAFGKRQGREFIWNDLLSLETGSLKLANGRVIEKTLYNRRTRQDEPALFVALTFERREVLDSSNIKPMNLIGVARGENIPAVIALTDPEGCPLSRFKDSLGNPTHILRIGESYKEKQRTIQAKKEVEQRRAGGYSRKYASKAKNLADDMVRNTARDLLYYAVTQDAMLIFANLSRGFGRQGKRTFMAERQYTRMEDWLTAKLAYEGLPSKTYLSKTLAQYTSKTCSNCGFTITSADYDRVLEKLKKTATGWMTTINGKELKVEGQITYYNRYKRQNVVKDLSVELDRLSEESVNNDISSWTKGRSGEALSLLKKRFSHRPVQEKFVCLNCGFETHAAEQAALNIARSWLFLRSQEYKKYQTNKTTGNTDKRAFVETWQSFYRKKLKEVWKPAV | did not exhibit editing |  |  | 
dCasX527: dCasX variant, SEQ ID NO: 24 (protein) QEIKRINKIRRRLVKDSNTKKAGKTRGPMKTLLVRVMTPDLRERLENLRKKPENIPQPISNTSRANLNKLLTDYTEMKKAILHVYWEEFQKDPVGLMSRVAQPASKKIDQNKLKPEMDEKGNLTTAGFACSQCGQPLFVYKLEQVSEKGKAYTNYFGRCNVAEHEKLILLAQLKPEKDSDEAVTYSLGKFGQRALDFYSIHVTKESTHPVKPLAQIAGNRYASGPVGKALSDACMGTIASFLSKYQDIIIEHQKVVKGNQKRLESLRELAGKENLEYPSVTLPPQPHTKEGVDAYNEVIARVRMWVNLNLWQKLKLSRDDAKPLLRLKGFPSFPLVERQANEVDWWDMVCNVKKLINEKKEDGKVFWQNLAGYKRQEALRPYLSSEEDRKKGKKFARYQLGDLLLHLEKKHGEDWGKVYDEAWERIDKKVEGLSKHIKLEEERRSEDAQSKAALTDWLRAKASFVIEGLKEADKDEFCRCELKLQKWYGDLRGKPFAIEAENSILDISGFSKQYNCAFIWQKDGVKKLNLYLIINYFKGGKLRFKKIKPEAFEANRFYTVINKKSGEIVPMEVNFNFDDPNLIILPLAFGKRQGREFIWNDLLSLETGSLKLANGRVIEKTLYNRRTRQDEPALFVALTFERREVLDSSNIKPMNLIGVARGENIPAVIALTDPEGCPLSRFKDSLGNPTHILRIGESYKEKQRTIQAKKEVEQRRAGGYSRKYASKAKNLADDMVRNTARDLLYYAVTQDAMLIFANLSRGFGRQGKRTFMAERQYTRMEDWLTAKLAYEGLSKTYLSKTLAQYTSKTCSNCGFTITSADYDRVLEKLKKTATGWMTTINGKELKVEGQITYYNRYKRQNVVKDLSVELDRLSEESVNNDISSWTKGRSGEALSLLKKRFSHRPVQEKFVCLNCGFETHAAEQAALNIARSWLFLRSQEYKKYQTNKTTGNTDKRAFVETWQSFYRKKLKEVWKPAV | did not exhibit editing |  |  | 
dXR4: dCasX491 fused to ZNF334 KRAB domain; protein SEQ ID NO: 59441 (protein) MAPKKKRKVSRGGSGGGSAQEIKRINKIRRRLVKDSNTKKAGKTGPMKTLLVRVMTPDLRERLENLRKKPENIPQPISNTSRANLNKLLTDYTEMKKAILHVYWEEFQKDPVGLMSRVAQPASKKIDQNKLKPEMDEKGNLTTAGFACSQCGQPLFVYKLEQVSEKGKAYTNYFGRCNVAEHEKLILLAQLKPEKDSDEAVTYSLGKFGQRALDFYSIHVTKESTHPVKPLAQIAGNRYASGPVGKALSDACMGTIASFLSKYQDIIIEHQKVVKGNQKRLESLRELAGKENLEYPSVTLPPQPHTKEGVDAYNEVIARVRMWVNLNLWQKLKLSRDDAKPLLRLKGFPSFPLVERQANEVDWWDMVCNVKKLINEKKEDGKVFWQNLAGYKRQEALRPYLSSEEDRKKGKKFARYQLGDLLLHLEKKHGEDWGKVYDEAWERIDKKVEGLSKHIKLEEERRSEDAQSKAALTDWLRAKASFVIEGLKEADKDEFCRCELKLQKWYGDLRGKPFAIEAENSILDISGFSKQYNCAFIWQKDGVKKLNLYLIINYFKGGKLRFKKIKPEAFEANRFYTVINKKSGEIVPMEVNFNFDDPNLIILPLAFGKRQGREFIWNDLLSLETGSLKLANGRVIEKTLYNRRTRQDEPALFVALTFERREVLDSSNIKPMNLIGVARGENIPAVIALTDPEGCPLSRFKDSLGNPTHILRIGESYKEKQRTIQAKKEVEQRRAGGYSRKYASKAKNLADDMVRNTARDLLYYAVTQDAMLIFANLSRGFGRQGKRTFMAERQYTRMEDWLTAKLAYEGLSKTYLSKTLAQYTSKTCSNCGFTITSADYDRVLEKLKKTATGWMTTINGKELKVEGQITYYNRYKRQNVVKDLSVELDRLSEESVNNDISSWTKGRSGEALSLLKKRFSHRPVQEKFVCLNCGFETHAAEQAALNIARSWLFLRSQEYKKYQTNKTTGNTDKRAFVETWQSFYRKKLKEVWKPAVRSGGSGGGSTSKMKKFQIPVSFQDLTVNFTQEEWQQLDPAQRLLYRDVMLENYSNLVSVGYHVSKPDVIFKLEQGEEPWIVEEFSNQNYPDTSPKKKRKV |  | 98.23 | 19.80 | 
dCasX491: catalytically-dead CasX 491, SEQ ID NO: 18 (protein) QEIKRINKIRRRLVKDSNTKKAGKTGPMKTLLVRVMTPDLRERLENLRKKPENIPQPISNTSRANLNKLLTDYTEMKKAILHVYWEEFQKDPVGLMSRVAQPASKKIDQNKLKPEMDEKGNLTTAGFACSQCGQPLFVYKLEQVSEKGKAYTNYFGRCNVAEHEKLILLAQLKPEKDSDEAVTYSLGKFGQRALDFYSIHVTKESTHPVKPLAQIAGNRYASGPVGKALSDACMGTIASFLSKYQDIIIEHQKVVKGNQKRLESLRELAGKENLEYPSVTLPPQPHTKEGVDAYNEVIARVRMWVNLNLWQKLKLSRDDAKPLLRLKGFPSFPLVERQANEVDWWDMVCNVKKLINEKKEDGKVFWQNLAGYKRQEALRPYLSSEEDRKKGKKFARYQLGDLLLHLEKKHGEDWGKVYDEAWERIDKKVEGLSKHIKLEEERRSEDAQSKAALTDWLRAKASFVIEGLKEADKDEFCRCELKLQKWYGDLRGKPFAIEAENSILDISGFSKQYNCAFIWQKDGVKKLNLYLIINYFKGGKLRFKKIKPEAFEANRFYTVINKKSGEIVPMEVNFNFDDPNLIILPLAFGKRQGREFIWNDLLSLETGSLKLANGRVIEKTLYNRRTRQDEPALFVALTFERREVLDSSNIKPMNLIGVARGENIPAVIALTDPEGCPLSRFKDSLGNPTHILRIGESYKEKQRTIQAKKEVEQRRAGGYSRKYASKAKNLADDMVRNTARDLLYYAVTQDAMLIFANLSRGFGRQGKRTFMAERQYTRMEDWLTAKLAYEGLSKTYLSKTLAQYTSKTCSNCGFTITSADYDRVLEKLKKTATGWMTTINGKELKVEGQITYYNRYKRQNVVKDLSVELDRLSEESVNNDISSWTKGRSGEALSLLKKRFSHRPVQEKFVCLNCGFETHAAEQAALNIARSWLFLRSQEYKKYQTNKTTGNTDKRAFVETWQSFYRKKLKEVWKPAV | did not exhibit editing |  |  | ~10

Reference: US12553037B2, “Engineered class 2, type V repressor systems” (Scribe Therapeutics Inc., priority 2021, dated 2026)
